{"source": "paper PMC4783296", "about": "“Structural basis underlying CAC RNA recognition by the RRM domain of dimeric RNA-binding protein RBPMS”", "binders": {"B1": {"name": "ETF1 17-nt RNA (ssRNA)", "RNA": "GCACUUUCAACUUCACU"}}, "key": {"RBPMS RRM F65A": {"molecular_target": "RBPMS RRM F65A (human, UniProt Q93062 14-111, F65A)", "sequence (Q93062 14-111 F65A)": "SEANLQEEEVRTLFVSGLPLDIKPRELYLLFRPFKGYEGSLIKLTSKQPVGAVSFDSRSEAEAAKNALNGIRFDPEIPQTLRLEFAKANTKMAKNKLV", "assay": "ITC; ITC: 20 mM Tris-HCl pH 7.5, 100 mM NaCl, 25 C; 0.03-0.05 mM protein in cell, 0.26-0.5 mM RNA in syringe, single-site model", "details": "protein: recombinant; tags: 6His-SUMO removed with Ulp1; single strand"}, "RBPMS RRM F27A": {"molecular_target": "RBPMS RRM F27A (human, UniProt Q93062 14-111, F27A)", "sequence (Q93062 14-111 F27A)": "as the sequence (Q93062 14-111 F65A) above, with F14A, A52F counted along it", "assay": "ITC; ITC: 20 mM Tris-HCl pH 7.5, 100 mM NaCl, 25 C; 0.03-0.05 mM protein in cell, 0.26-0.5 mM RNA in syringe, single-site model", "details": "protein: recombinant; tags: 6His-SUMO removed with Ulp1; single strand"}, "RBPMS RRM T103A/K104A": {"molecular_target": "RBPMS RRM T103A/K104A (human, UniProt Q93062 14-111, T103A;K104A)", "sequence (Q93062 14-111 T103A/K104A)": "as the sequence (Q93062 14-111 F65A) above, with A52F, T90A, K91A counted along it", "assay": "ITC; ITC: 20 mM Tris-HCl pH 7.5, 100 mM NaCl, 25 C; 0.03-0.05 mM protein in cell, 0.26-0.5 mM RNA in syringe, single-site model", "details": "protein: recombinant; tags: 6His-SUMO removed with Ulp1; single strand"}, "RBPMS RRM K100E": {"molecular_target": "RBPMS RRM K100E (human, UniProt Q93062 14-111, K100E)", "sequence (Q93062 14-111 K100E)": "as the sequence (Q93062 14-111 F65A) above, with A52F, K87E counted along it", "assay": "ITC; ITC: 20 mM Tris-HCl pH 7.5, 100 mM NaCl, 25 C; 0.03-0.05 mM protein in cell, 0.26-0.5 mM RNA in syringe, single-site model", "details": "protein: recombinant; tags: 6His-SUMO removed with Ulp1; single strand"}, "RBPMS RRM E97A/K100A": {"molecular_target": "RBPMS RRM E97A/K100A (human, UniProt Q93062 14-111, E97A;K100A)", "sequence (Q93062 14-111 E97A/K100A)": "as the sequence (Q93062 14-111 F65A) above, with A52F, E84A, K87A counted along it", "assay": "ITC; Kd printed only in figure; ITC: 20 mM Tris-HCl pH 7.5, 100 mM NaCl, 25 C; 0.03-0.05 mM protein in cell, 0.26-0.5 mM RNA in syringe, single-site model", "details": "protein: recombinant; tags: 6His-SUMO removed with Ulp1; single strand"}, "RBPMS RRM WT": {"molecular_target": "RBPMS RRM WT (human, UniProt Q93062 14-111)", "sequence (Q93062 14-111)": "as the sequence (Q93062 14-111 F65A) above, with A52F counted along it", "assay": "ITC; approaching 2:1 RRM:RNA; ITC: 20 mM Tris-HCl pH 7.5, 100 mM NaCl, 25 C; 0.03-0.05 mM protein in cell, 0.26-0.5 mM RNA in syringe, single-site model", "details": "protein: recombinant; tags: 6His-SUMO removed with Ulp1; chain copies: 2; single strand"}}}
{"binder": "B1", "values": [{"measurement": "binding result", "setting": "RBPMS RRM F65A", "result": "no binding"}, {"measurement": "binding result", "setting": "RBPMS RRM F27A", "result": "no binding"}, {"measurement": "binding result", "setting": "RBPMS RRM T103A/K104A", "result": "no binding"}, {"measurement": "binding result", "setting": "RBPMS RRM K100E", "result": "no binding"}, {"measurement": "binding signal", "setting": "RBPMS RRM E97A/K100A", "result": "~10 fold reduced affinity vs WT"}, {"measurement": "Kd", "setting": "RBPMS RRM WT", "result": 900, "unit": "nM"}]}
